Measured values reported in publication PMC8926328.

Biological target: HBsAg-SpyCatcher VLPs (hepatitis B virus)
Assay: SDS-PAGE of the covalent conjugate

## RBD-SpyTag (from UniProt P0DTC2) (domain or fragment)
  fraction unconjugated: < 20%
